Our source for the koff values is PMC9729883.

In general, koff refers to the rate constant with which the complex falls apart.

The target of experiment [1] is unmodified forms (of BB7.2 IgG1 and IgG3, as a group for a mean dissociation rate). The experiment in a line: BLI; SAX2 tips loaded with biotinylated HLA-A2 (0.25 ug/mL), then recombinant HLA-A2 IgG (3 ug/mL, 600 s), dipped into 5 uM monomeric FcγRIIIa V158; 0.05% Tween-PBS; off-rate from a one phase exponential decay fit, reference tip subtracted.
The target in experiment [2] is afucosylated IgG1 and IgG3 (HLA-A2 mAbs, as a group for a mean dissociation rate). Described as above.

Turning to “FcγRIIIa V158 (human, monomeric) (receptor)”, the koff in experiment [1] is 0.46 s⁻¹; in experiment [2], 0.021 s⁻¹.
